Data on 25 sequences can be found in the supplement of paper PMC10201428.

Data set [1] deals with VchCAST RNA-guided transposition machinery (E. coli BL21(DE3) host, lacZ target). As to the kind of experiment: relative integration efficiency (T-RL orientation) vs wild-type transposon end (log2 (normalized fold change)); transposon end mutated: right end (5 bp flank + 75 bp right end); higher = more efficient transposition. A digest of the protocol:
(§1)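 Barcode abundances in input plasmids and in genomic integration junctions were obtained by PCR amplification and Illumina sequencing. These came from E. coli BL21(DE3) co-transformed with a T7-driven effector plasmid and a pUC57 donor carrying 1549 left-end or 1849 right-end transposon variants, then plated with 0.1 mM IPTG at 37°C for 18 h. Relative integration efficiency is the output/input fold change, normalised to reference barcodes and log-transformed.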

Data set [2] has the same test system. Briefly: relative integration efficiency (T-LR orientation) vs wild-type transposon end (log2 (normalized fold change)); transposon end mutated: right end (5 bp flank + 75 bp right end); higher = more efficient transposition. In short, it runs like this: as §1

± gives the standard deviation of the averaged measurements.

For the sequence “ACATTTGTTGATACAACCATAAAATGATAATTACACCCATAAATTGAATATTATCACACCCATAAATTGATATTGCCTCTGATCATAGTCAGACCAACATTGCTACGACCCGTATTCGCACCGACAC”, the “relative integration efficiency (log2)” value in data set [1] was -1.1 ± 0.27; in data set [2], -0.409 ± 0.19.
The matching figures for “ACATTTGTTGATACAACCATAAAATGATAATTACACCCATAAATTGAATTATATCACACCCATAAATTGATATTGCCTCTGATCATAGTCAGACCAACATTGCTACGACCCGTATTCGCACCGACAC”: -1.65 ± 0.026 and -0.447 ± 0.17.
Consider “ACATTTGTTGATACAACCATAAAATGATAATTACACCCATAAATTGAGCATTATCACACCCATAAATTGATATTGCCTCTGATCATAGTCAGACCAACATTGCTACGACCCGTATTCGCACCGACAC”, for which the figures for the “relative integration efficiency (log2)” value in data set [1] and in data set [2] were -0.525 ± 0.0063 and -0.422 ± 0.13, respectively.
The matching figures for “ACATTTGTTGATACAACCATAAAATGATAATTACACCCATAAATTGAGCCGGCGACACAAACGCCCGGTCGCGGTAAGAGGATCATAGTCAGACCAACATTGCTACGACCCGTATTCGCACCGACAC”: -1.02 ± 0.23 and 1.83 ± 0.037.
On to “ACATTTGTTGATACAACCATAAAATGATAATTACACCCATAAATTGAGCCGTATCACACCCATAAATTGATATTGCCTCTGATCATAGTCAGACCAACATTGCTACGACCCGTATTCGCACCGACAC”, for which the “relative integration efficiency (log2)” value is -1.03 ± 0.093 in data set [1] and -1.21 ± 0.12 in data set [2].
The matching figures for “ACATTTGTTGATACAACCATAAAATGATAATTACACCCATAAATTGATAAAAATCACACCCATAAATTGATATTGCCTCTGATCATAGTCAGACCAACATTGCTACGACCCGTATTCGCACCGACAC”: -0.355 ± 0.081 and 0.324 ± 0.4.
In the same order, the values of “ACATTTGTTGATACAACCATAAAATGATAATTACACCCATAAATTGATAAAATACACACCCATAAATTGATATTGCCTCTGATCATAGTCAGACCAACATTGCTACGACCCGTATTCGCACCGACAC” are -0.37 ± 0.071 and -0.0186 ± 0.38.
In the same order, the values of “ACATTTGTTGATACAACCATAAAATGATAATTACACCCATAAATTGATAAGGATCACACCCATAAATTGATATTGCCTCTGATCATAGTCAGACCAACATTGCTACGACCCGTATTCGCACCGACAC” are -0.665 ± 0.083 and -0.0336 ± 0.22.
For “ACATTTGTTGATACAACCATAAAATGATAATTACACCCATAAATTGATAAGGCGACACAAACGCCCGGTCGCGGTAAGAGGATCATAGTCAGACCAACATTGCTACGACCCGTATTCGCACCGACAC”, the “relative integration efficiency (log2)” value in data set [1] is -0.882 ± 0.14; in data set [2] it was 2.27 ± 0.23.
On to “ACATTTGTTGATACAACCATAAAATGATAATTACACCCATAAATTGATAAGGCGCACACCCATAAATTGATATTGCCTCTGATCATAGTCAGACCAACATTGCTACGACCCGTATTCGCACCGACAC”, for which the “relative integration efficiency (log2)” value in data set [1] is -0.436 ± 0.083; in data set [2], -0.0146 ± 0.0051.
On to “ACATTTGTTGATACAACCATAAAATGATAATTACACCCATAAATTGATAATAATGACACCGAATTTAACTATAACGCTCTGATCATAGTCAGACCAACATTGCTACGACCCGTATTCGCACCGACAC”, for which the “relative integration efficiency (log2)” value was 1.54 ± 0.64 in data set [1] and 5.35 ± 0.24 in data set [2].
As to “ACATTTGTTGATACAACCATAAAATGATAATTACACCCATAAATTGATAATATAGACACCCATAAATTGATATTGCCTCTGATCATAGTCAGACCAACATTGCTACGACCCGTATTCGCACCGACAC”, the “relative integration efficiency (log2)” value was -0.321 ± 0.15 in data set [1] and -0.0877 ± 0.52 in data set [2].
Consider “ACATTTGTTGATACAACCATAAAATGATAATTACACCCATAAATTGATAATATTCACACCCATAAATTGATATTGCCTCTGATCATAGTCAGACCAACATTGCTACGACCCGTATTCGCACCGACAC”, for which the “relative integration efficiency (log2)” value in data set [1] was -0.274 ± 0.23; in data set [2], -0.107 ± 0.095.
The matching figures for “ACATTTGTTGATACAACCATAAAATGATAATTACACCCATAAATTGATAATCACACCCATAAATTGATATTGCCTCTGATCATAGTCAGACCAACATTGCTACGACCCGTATTCGCACCGACACTGA”: -1.32 ± 0.31 and 1.82 ± 0.057.
In the same order, the values of “ACATTTGTTGATACAACCATAAAATGATAATTACACCCATAAATTGATAATGATGACACCGAATTTAACTATAACGCTCTGATCATAGTCAGACCAACATTGCTACGACCCGTATTCGCACCGACAC” are -1.34 ± 0.27 and 2.06 ± 0.097.
In the same order, the values of “ACATTTGTTGATACAACCATAAAATGATAATTACACCCATAAATTGATAATGCGAACACCCATAAATTGATATTGCCTCTGATCATAGTCAGACCAACATTGCTACGACCCGTATTCGCACCGACAC” are -0.292 ± 0.045 and 0.16 ± 0.083.
On to “ACATTTGTTGATACAACCATAAAATGATAATTACACCCATAAATTGATAATGCGACACAAACGCCCGGTCGCGGTAAGAGGATCATAGTCAGACCAACATTGCTACGACCCGTATTCGCACCGACAC”, for which the “relative integration efficiency (log2)” value in data set [1] was -0.485 ± 0.11; in data set [2], 2.69 ± 0.1.
In the same order, the values of “ACATTTGTTGATACAACCATAAAATGATAATTACACCCATAAATTGATAATGCTCACACCCATAAATTGATATTGCCTCTGATCATAGTCAGACCAACATTGCTACGACCCGTATTCGCACCGACAC” are -0.488 ± 0.1 and 0.654 ± 0.025.
In the same order, the values of “ACATTTGTTGATACAACCATAAAATGATAATTACACCCATAAATTGATAATTAAAACACCCATAAATTGATATTGCCTCTGATCATAGTCAGACCAACATTGCTACGACCCGTATTCGCACCGACAC” are -0.399 ± 0.27 and 0.089 ± 0.23.
Consider “ACATTTGTTGATACAACCATAAAATGATAATTACACCCATAAATTGATAATTAAGACACCCATAAATTGATATTGCCTCTGATCATAGTCAGACCAACATTGCTACGACCCGTATTCGCACCGACAC”, for which the results for the “relative integration efficiency (log2)” value in data set [1] and in data set [2] were -0.306 ± 0.23 and -0.137 ± 0.32, respectively.
As to “ACATTTGTTGATACAACCATAAAATGATAATTACACCCATAAATTGATAATTAAGTGACCCATAAATTGATATTGCCTCTGATCATAGTCAGACCAACATTGCTACGACCCGTATTCGCACCGACAC”, the “relative integration efficiency (log2)” value is -0.484 ± 0.16 in data set [1] and 0.91 ± 0.58 in data set [2].
The matching figures for “ACATTTGTTGATACAACCATAAAATGATAATTACACCCATAAATTGATAATTACACCCATAAATTGATATTGCCTCTGATCATAGTCAGACCAACATTGCTACGACCCGTATTCGCACCGACACTGA”: -0.821 ± 0.28 and 1.39 ± 0.33.
The matching figures for “ACATTTGTTGATACAACCATAAAATGATAATTACACCCATAAATTGATAATTACCACTCCCAATTTAACTATAACGCTCTGATCATAGTCAGACCAACATTGCTACGACCCGTATTCGCACCGACAC”: -0.782 ± 0.24 and 2.61 ± 0.18.
In the same order, the values of “ACATTTGTTGATACAACCATAAAATGATAATTACACCCATAAATTGATAATTAGAACACCCATAAATTGATATTGCCTCTGATCATAGTCAGACCAACATTGCTACGACCCGTATTCGCACCGACAC” are -0.195 ± 0.2 and -0.0187 ± 0.33.
Consider “ACATTTGTTGATACAACCATAAAATGATAATTACACCCATAAATTGATAATTAGACAACCCATAAATTGATATTGCCTCTGATCATAGTCAGACCAACATTGCTACGACCCGTATTCGCACCGACAC”, for which the “relative integration efficiency (log2)” value in data set [1] was -0.476 ± 0.18; in data set [2], 0.737 ± 0.02.
